We go through 1 substance from patent US20170258870.

The data set concerns Helix 5 TAT peptide.

As to recombinant GC mutant N370S, the “GC enzyme activity (4-MU substrate)” value was “the helix 5 TAT-peptide led to a four-fold increase in the activity of the N370S mutant”.
